According to patent publication US10500249B2, “Compositions and methods for preventing or treating diseases, conditions, or processes characterized by aberrant fibroblast proliferation and extracellular matrix deposition” (MOERAE MATRIX, INC., priority 2014, dated 2019):

Legend:
Assay in all cases: Kinase Profiling Assay
Assay type in all cases: biochemical
Conditions in all cases: 100 μM
CDK2/cyclinE (h) = molecular target: T1, CDK2/cyclinE (h) (Homo sapiens, UniProt P24941)
T1 construct: purchased Millipore
Method in brief: (§1)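 Scintillation counting quantifies radiolabeled, positively charged substrate retained on a negatively charged filter after kinase reaction with labeled ATP; inhibitor peptide present.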

Aurora-B (h) = Aurora-B (h) (Homo sapiens, UniProt Q96GD4)
Method in brief: as §1

PKG1β (h) = molecular target: T2, PKG1β (h) (Homo sapiens, UniProt Q13976)
T2 sequence (Q13976 1-686 isoform Q13976-2): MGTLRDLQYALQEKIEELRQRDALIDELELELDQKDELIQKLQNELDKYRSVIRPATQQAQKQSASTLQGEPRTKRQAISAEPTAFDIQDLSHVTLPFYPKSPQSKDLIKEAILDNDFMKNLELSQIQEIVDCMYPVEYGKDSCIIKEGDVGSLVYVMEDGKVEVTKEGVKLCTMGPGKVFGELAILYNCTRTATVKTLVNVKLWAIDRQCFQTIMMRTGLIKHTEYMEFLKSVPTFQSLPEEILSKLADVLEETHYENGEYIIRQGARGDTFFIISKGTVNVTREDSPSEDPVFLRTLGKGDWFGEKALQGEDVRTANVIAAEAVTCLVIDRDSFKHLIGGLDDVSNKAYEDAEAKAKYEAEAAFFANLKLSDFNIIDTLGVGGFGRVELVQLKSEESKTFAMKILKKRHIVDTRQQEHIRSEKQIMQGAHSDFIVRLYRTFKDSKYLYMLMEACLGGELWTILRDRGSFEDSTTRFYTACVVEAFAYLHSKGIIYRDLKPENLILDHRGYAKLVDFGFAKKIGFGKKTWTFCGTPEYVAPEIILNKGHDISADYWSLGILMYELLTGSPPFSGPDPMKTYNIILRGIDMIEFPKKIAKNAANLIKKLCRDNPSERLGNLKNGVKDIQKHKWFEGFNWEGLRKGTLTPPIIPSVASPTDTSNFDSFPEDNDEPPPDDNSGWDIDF
Method in brief: as §1

EphA2 (h) = molecular target: T3, EphA2 (h) (Homo sapiens, UniProt P29317)
T3 construct: purchased Millipore
Method in brief: as §1

MSSK1 (h) = molecular target: T4, MSSK1 (h) (Homo sapiens, UniProt Q9UPE1)
T4 construct: purchased Millipore
Method in brief: as §1

Flt3(D835Y) (h) = Flt3(D835Y) (h) (Homo sapiens, UniProt P36888, D835Y)
Method in brief: as §1

SGK2 (h) = molecular target: T5, SGK2 (h) (Homo sapiens, UniProt Q9HBY8)
T5 sequence (Q9HBY8 1-367): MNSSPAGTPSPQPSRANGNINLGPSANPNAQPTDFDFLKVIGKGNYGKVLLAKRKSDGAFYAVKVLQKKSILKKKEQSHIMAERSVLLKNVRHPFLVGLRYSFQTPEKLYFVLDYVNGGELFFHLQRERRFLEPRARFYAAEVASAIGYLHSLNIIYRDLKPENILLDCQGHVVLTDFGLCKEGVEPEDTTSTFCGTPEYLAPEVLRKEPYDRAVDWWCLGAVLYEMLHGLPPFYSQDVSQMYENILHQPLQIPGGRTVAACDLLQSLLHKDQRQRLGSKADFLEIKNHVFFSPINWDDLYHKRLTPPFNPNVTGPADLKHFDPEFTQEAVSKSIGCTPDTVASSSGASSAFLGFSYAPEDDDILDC
Method in brief: as §1

PKCμ (h) = molecular target: T6, PKCμ (h) (Homo sapiens, UniProt Q15139)
T6 sequence (Q15139 1-912): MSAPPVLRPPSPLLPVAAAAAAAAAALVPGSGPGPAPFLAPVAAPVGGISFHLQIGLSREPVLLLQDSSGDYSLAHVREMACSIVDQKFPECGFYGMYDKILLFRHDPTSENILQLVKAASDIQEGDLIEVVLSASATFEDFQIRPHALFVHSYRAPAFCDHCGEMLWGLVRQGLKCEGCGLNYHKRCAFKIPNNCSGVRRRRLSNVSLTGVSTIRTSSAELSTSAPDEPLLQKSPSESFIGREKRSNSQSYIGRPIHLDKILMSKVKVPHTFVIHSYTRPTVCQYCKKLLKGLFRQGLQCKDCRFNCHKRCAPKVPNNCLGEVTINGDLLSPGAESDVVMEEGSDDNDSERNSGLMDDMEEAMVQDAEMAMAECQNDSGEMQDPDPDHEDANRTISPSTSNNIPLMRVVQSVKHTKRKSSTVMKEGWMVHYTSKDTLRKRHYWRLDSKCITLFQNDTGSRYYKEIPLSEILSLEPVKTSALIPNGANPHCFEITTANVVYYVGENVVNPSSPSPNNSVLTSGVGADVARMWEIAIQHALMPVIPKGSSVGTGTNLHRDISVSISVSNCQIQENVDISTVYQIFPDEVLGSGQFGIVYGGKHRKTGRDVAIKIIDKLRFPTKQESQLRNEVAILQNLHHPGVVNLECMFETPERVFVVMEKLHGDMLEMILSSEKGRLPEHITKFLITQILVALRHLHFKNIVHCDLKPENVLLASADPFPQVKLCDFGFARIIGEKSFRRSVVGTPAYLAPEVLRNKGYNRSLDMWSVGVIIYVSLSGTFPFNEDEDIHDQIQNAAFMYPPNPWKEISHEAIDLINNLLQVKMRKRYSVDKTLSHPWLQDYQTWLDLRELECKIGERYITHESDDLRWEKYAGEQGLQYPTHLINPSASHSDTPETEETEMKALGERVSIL
Method in brief: as §1

SAPK3 (h) = molecular target: T7, SAPK3 (h) (Homo sapiens, UniProt P53778)
T7 sequence (P53778 1-367): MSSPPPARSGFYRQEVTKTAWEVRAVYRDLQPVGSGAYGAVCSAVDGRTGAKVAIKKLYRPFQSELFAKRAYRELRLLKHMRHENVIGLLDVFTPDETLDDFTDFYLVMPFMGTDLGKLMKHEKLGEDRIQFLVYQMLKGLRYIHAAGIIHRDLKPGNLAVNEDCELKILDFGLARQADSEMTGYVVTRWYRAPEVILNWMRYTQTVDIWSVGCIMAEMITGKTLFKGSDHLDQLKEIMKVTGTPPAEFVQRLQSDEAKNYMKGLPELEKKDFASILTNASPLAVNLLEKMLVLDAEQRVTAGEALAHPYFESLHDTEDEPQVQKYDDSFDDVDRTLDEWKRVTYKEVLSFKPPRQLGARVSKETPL
Method in brief: as §1

Sequence of Aurora-B (h) (Q96GD4 whole entry): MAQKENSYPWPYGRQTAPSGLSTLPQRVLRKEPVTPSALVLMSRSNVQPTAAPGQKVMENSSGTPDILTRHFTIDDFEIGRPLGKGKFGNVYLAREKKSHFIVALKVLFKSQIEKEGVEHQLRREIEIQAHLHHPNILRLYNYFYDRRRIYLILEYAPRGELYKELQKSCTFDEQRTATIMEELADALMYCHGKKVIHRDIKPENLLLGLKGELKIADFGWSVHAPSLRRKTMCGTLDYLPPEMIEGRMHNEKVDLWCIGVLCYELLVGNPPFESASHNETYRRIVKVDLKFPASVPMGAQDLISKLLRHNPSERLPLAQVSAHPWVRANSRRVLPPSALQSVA
T4 sequence (Q9UPE1 whole entry): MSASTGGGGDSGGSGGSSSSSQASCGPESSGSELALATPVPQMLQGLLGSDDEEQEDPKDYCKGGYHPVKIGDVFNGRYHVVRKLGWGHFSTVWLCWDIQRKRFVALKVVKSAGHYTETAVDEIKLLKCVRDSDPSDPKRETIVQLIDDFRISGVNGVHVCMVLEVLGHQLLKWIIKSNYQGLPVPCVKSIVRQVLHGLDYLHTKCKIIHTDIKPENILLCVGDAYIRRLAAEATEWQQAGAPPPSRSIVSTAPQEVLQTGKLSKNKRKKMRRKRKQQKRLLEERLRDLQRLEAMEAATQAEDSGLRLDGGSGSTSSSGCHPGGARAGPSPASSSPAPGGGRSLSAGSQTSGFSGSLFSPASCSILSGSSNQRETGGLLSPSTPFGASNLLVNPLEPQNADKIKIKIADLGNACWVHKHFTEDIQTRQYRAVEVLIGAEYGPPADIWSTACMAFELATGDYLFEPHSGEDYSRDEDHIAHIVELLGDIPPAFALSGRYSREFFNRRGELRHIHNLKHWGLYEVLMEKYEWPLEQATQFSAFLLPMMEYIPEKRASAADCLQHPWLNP

FAKLAARLYRKALARQLGVAA [MMI-0300]
% activity (CDK2/cyclinE (h)): 94%
% activity (Aurora-B (h)): 128%
% activity (PKG1β (h)): 50%
% activity (EphA2 (h)): 31%
% activity (MSSK1 (h)): 77%
% activity (Flt3(D835Y) (h)): 80%
% activity (SGK2 (h)): 56%
% activity (PKCμ (h)): 22%
% activity (SAPK3 (h)): 84%

KAFAKLAARLYRKALARQLGVAA [MMI-0400]
% activity (CDK2/cyclinE (h)): 83%
% activity (Aurora-B (h)): 150%
% activity (PKG1β (h)): 53%
% activity (EphA2 (h)): 17%
% activity (MSSK1 (h)): 75%
% activity (Flt3(D835Y) (h)): 71%
% activity (SGK2 (h)): 98%
% activity (PKCμ (h)): 14%
% activity (SAPK3 (h)): 79%

YARAAARQARAKALNRQLGVA (Mammalian) [MMI-0200]
% activity (Aurora-B (h)): 166%
% activity (PKG1β (h)): 57%
% activity (EphA2 (h)): 95%
% activity (MSSK1 (h)): 100%
% activity (PKCμ (h)): 73%
% activity (SAPK3 (h)): 97%

HRRIKAWLKKIKALARQLGVAA (Mammalian) [MMI-0500]
% activity (CDK2/cyclinE (h)): 19%
% activity (Aurora-B (h)): 5%
% activity (PKG1β (h)): 24%
% activity (MSSK1 (h)): 22%
% activity (Flt3(D835Y) (h)): 65%
% activity (SGK2 (h)): −1%
% activity (PKCμ (h)): 10%
% activity (SAPK3 (h)): 24%
